Target: T1, recombinant Strep-Flag-IL-17 (SF-IL-17), murine (mouse), Q62386
T1 chain: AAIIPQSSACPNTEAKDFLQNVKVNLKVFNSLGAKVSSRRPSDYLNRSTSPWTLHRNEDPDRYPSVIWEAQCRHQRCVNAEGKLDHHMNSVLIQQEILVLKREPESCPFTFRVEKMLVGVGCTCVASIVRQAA
Experiment: SDS-PAGE without and with DTT, Coomassie stain; purified SF-IL-17 in SDS sample buffer, untreated or reduced with 50 mM DTT
Conditions: remark: other sources report otherwise

B1: recombinant Strep-Flag-IL-17 (SF-IL-17), murine, Q62386 26-158 (ligand)
chain: T1 chain
stoichiometry N: 2

Reference: publication PMC7459424
